Data: ChEMBL document CHEMBL1128918, “Deuterium isotope effects on porphobilinogen synthesis catalysed by 5-aminolaevulinic acid dehydratase” (Bioorg Med Chem Lett, 1996)

Substrate: NCC(=O)CCC(=O)O
Assay: The Michaelis-Menten rate of reaction catalyzed by ALA dehydratase from Bacillus subtilis measured spectrophotometrically

B1: Delta-aminolevulinic acid dehydratase (Homo sapiens), P13716 (protein)
chain: MQPQSVLHSGYFHPLLRAWQTATTTLNASNLIYPIFVTDVPDDIQPITSLPGVARYGVKRLEEMLRPLVEEGLRCVLIFGVPSRVPKDERGSAADSEESPAIEAIHLLRKTFPNLLVACDVCLCPYTSHGHCGLLSENGAFRAEESRQRLAEVALAYAKAGCQVVAPSDMMDGRVEAIKEALMAHGLGNRVSVMSYSAKFASCFYGPFRDAAKSSPAFGDRRCYQLPPGARGLALRAVDRDVREGADMLMVKPGMPYLDIVREVKDKHPDLPLAVYHVSGEFAMLWHGAQAGAFDLKAAVLEAMTAFRRAGADIIITYYTPQLLQWLKEE
With B1 the Km was 241 µM [middle of 4 runs].
